Test results reported in article PMC11982978, “Cancer hotspot mutations rewire ERK2 specificity by selective exclusion of docking interactions” (The Journal of Biological Chemistry, 2025).
Like-named read-outs stand apart in the source and are kept apart here. Blank lines part the entries; values can stand above or below the binder they belong to. Ends that are not written are not given here.

Experiments:
[1] = target: T1, Active phosphorylated His6-tagged ERK2 D319N (rat (p-0033 says mouse)), P63086; test: competitive peptide kinase assay; D-peptide titrated as competitive inhibitor of 10 nM ERK2 on 5 μM D-site dependent reporter peptide (AQT0376), 10 μM ATP; 54 mM HEPES pH 7.4, 1.2 mM DTT, 0.01% Brij-35, 1% glycerol, 0.2 mg/ml BSA, 10 mM MgCl2; fluorescence read-out; IC50 as relative binding affinity
T1 chain: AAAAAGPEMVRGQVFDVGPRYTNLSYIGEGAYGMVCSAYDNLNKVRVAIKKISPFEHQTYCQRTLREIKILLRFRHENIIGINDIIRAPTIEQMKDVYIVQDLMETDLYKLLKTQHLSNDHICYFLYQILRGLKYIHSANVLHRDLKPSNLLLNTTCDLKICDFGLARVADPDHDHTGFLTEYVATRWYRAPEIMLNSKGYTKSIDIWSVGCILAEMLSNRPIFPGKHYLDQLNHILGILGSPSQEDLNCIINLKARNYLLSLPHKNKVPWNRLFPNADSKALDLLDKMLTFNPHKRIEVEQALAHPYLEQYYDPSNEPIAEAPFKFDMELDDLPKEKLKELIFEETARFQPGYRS

[2] = target: T2, Active phosphorylated His6-tagged ERK2 R133K (rat (p-0033 says mouse)), P63086; test: as above
T2 chain: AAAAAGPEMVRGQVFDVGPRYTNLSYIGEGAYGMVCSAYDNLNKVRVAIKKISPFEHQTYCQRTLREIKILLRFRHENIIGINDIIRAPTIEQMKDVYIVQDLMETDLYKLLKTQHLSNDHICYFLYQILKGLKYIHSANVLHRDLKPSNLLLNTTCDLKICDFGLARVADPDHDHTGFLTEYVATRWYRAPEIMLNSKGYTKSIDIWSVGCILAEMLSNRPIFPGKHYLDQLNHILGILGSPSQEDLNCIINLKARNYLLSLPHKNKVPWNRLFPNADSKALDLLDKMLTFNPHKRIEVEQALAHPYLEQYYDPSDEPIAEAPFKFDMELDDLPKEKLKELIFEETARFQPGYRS

[3] = target: T3, Active phosphorylated His6-tagged ERK2 WT (rat (p-0033 says mouse)), P63086; test: as above
[4] = target: T4, Active phosphorylated His6-tagged ERK2 E320K (rat (p-0033 says mouse)), P63086; test: as above
T4 chain: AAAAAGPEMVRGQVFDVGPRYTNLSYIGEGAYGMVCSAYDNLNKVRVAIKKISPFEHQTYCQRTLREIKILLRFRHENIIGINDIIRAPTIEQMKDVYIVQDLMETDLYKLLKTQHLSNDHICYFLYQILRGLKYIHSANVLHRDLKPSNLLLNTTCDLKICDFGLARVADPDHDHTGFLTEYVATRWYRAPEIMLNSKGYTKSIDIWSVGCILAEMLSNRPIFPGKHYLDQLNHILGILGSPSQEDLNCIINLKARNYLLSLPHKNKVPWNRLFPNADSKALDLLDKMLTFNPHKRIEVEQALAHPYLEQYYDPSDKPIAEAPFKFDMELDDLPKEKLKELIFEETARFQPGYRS

[5] = target: T1, Active phosphorylated His6-tagged ERK2 …; conditions: modification not given; phosphorylated (active form; sites not given)
[6] = target: T2, Active phosphorylated His6-tagged ERK2 …; conditions: modification not given; phosphorylated (active form; sites not given)
[7] = target: T4, Active phosphorylated His6-tagged ERK2 …; conditions: modification not given; phosphorylated (active form; sites not given)
[8] = target: T3, Active phosphorylated His6-tagged ERK2 …; conditions: modification not given; phosphorylated (active form; sites not given)
[9] = target: T1, Active phosphorylated His6-tagged ERK2 …; conditions: modification not given; phosphorylated (active form; sites not given)
[10] = target: T2, Active phosphorylated His6-tagged ERK2 …; conditions: modification not given; phosphorylated (active form; sites not given)
[11] = target: T4, Active phosphorylated His6-tagged ERK2 …; conditions: modification not given; phosphorylated (active form; sites not given)
[12] = target: T3, Active phosphorylated His6-tagged ERK2 …; conditions: modification not given; phosphorylated (active form; sites not given); remark: listed apart in the source
[13] = target: T1, Active phosphorylated His6-tagged ERK2 …; conditions: modification not given; phosphorylated (active form; sites not given)
[14] = target: T3, Active phosphorylated His6-tagged ERK2 …; conditions: modification not given; phosphorylated (active form; sites not given); remark: listed apart in the source
[15] = target: T4, Active phosphorylated His6-tagged ERK2 …; conditions: modification not given; phosphorylated (active form; sites not given)
[16] = target: T2, Active phosphorylated His6-tagged ERK2 …; conditions: modification not given; phosphorylated (active form; sites not given)

IC50 [1]: 150 µM
IC50 [2]: 150 µM
IC50 [3]: 120 µM
IC50 [4]: 170 µM
Binder: IGRARRGLPRLAVSD (modifications not checked) [ISG20 D-peptide G2+]

IC50 [1]: 150 µM
IC50 [2]: 170 µM
IC50 [3]: 75 µM
IC50 [4]: 210 µM
Binder: IRARRGGLPRLAVSD (modifications not checked) [ISG20 D-peptide G7+]

IC50 [5]: 23 µM
IC50 [6]: 29 µM
IC50 [7]: 41 µM
IC50 [8]: 23 µM
Binder: ARRKPVLPALTINP (not fully specified (some residues, N-terminus)) [MAP2K2]

IC50 [9]: 600 µM
IC50 [10]: 760 µM
IC50 [11]: 600 µM
IC50 [12]: 42 µM
Binder: GLQERRGSNVSLTL (not fully specified (some residues, N-terminus)) [PTPN5]

IC50 [13]: 32 µM
IC50 [14]: 35 µM
IC50 [15]: 43 µM
IC50 [16]: 58 µM
Binder: PQKGRKPRDLELPL (not fully specified (some residues, N-terminus)) [ELK1]
